Laboratory results taken from PMC3782484.
pEC50, pKd: −log10 of the molar value.

How the values were obtained:
[1] = biological target: 5pGST, recombinant FbsA fragment 5p (one repeat) fused to GST (Streptococcus agalactiae strain COH1); assay: SPR; BIAcore X; 5pGST or 6pGST (500 nM) captured on immobilized goat anti-GST antibody, GST alone in the reference cell; human Fng flowed at 2.92 nM to 750 nM, 20 µl/min; equilibrium analysis
[2] = biological target: 6pGST, recombinant FbsA fragment 6p (five repeats) fused to GST (Streptococcus agalactiae strain COH1); assay: as above
[3] = biological target: 5pGST, recombinant FbsA fragment 5p (one repeat) fused to GST (Streptococcus agalactiae strain COH1); assay: ELISA; 5pGST or 6pGST (500 ng/well) coated overnight at 4°C in 0.1 M carbonate buffer, blocked with 2% BSA, increasing amounts of human Fng; detected with mouse anti-human Fng IgG and peroxidase-conjugated rabbit anti-mouse IgG
[4] = biological target: 6pGST, recombinant FbsA fragment 6p (five repeats) fused to GST (Streptococcus agalactiae strain COH1); assay: as above

## Human fibrinogen (from UniProt P02671 36-866; P02675 45-491; P02679 27-453) (complex)
[1]
  pKd: 7.56
[2]
  pKd: 7.64
[3]
  pEC50: 7.51
[4]
  pEC50: 7.20
